*: point of attachment. FITC = O=C1OC2(c3ccc(O)cc3Oc3cc(O)ccc32)c2ccc(NC(=S)*)cc21; Ahx = NCCCCCC(=O)O

The target in experiment [1] is purified recombinant His-tagged VIM (Homo sapiens, UniProt P08670). Briefly: IMAC pull-down / comparative evaluation of vimentin-binding aptamers (net fluorescent signal with and without r-vimentin). The conditions noted are these: His-Tag beads, FIG. 5. The source says:
FIG. 4 is a schematic and photograph of a IMAC Pull-down assay. The numbers 1, 2, 4, 7, 9, 11, 14, 16, 17, and 18 under the tubes correspond to aptamers consisting of SEQ ID NOs: 1, 2, 4, 7, 9, 11, 14, 16, 17, and 18, respectively. IMAC=[…]/Ni- or Metal-chelate chromatography.
FIG. 5 is a graph showing a comparative evaluation of vimentin-binding aptamers. The numbers 1, 2, 4, 7, 9, 11, 14, 16, 17, 18, 22, and 23 under the graph correspond to aptamers consisting of SEQ ID NOs: 1, 2, 4, 7, 9, 11, 14, 16, 17, 18, 49, and 51, respectively.
Aptamers containing VIM binding domains were allowed to associate with purified recombinant His-tagged VIM, followed by the addition of His-Tag beads, which were then used to concentrate the His-VIM and associated aptamers (see FIG. 4). Numbers below the tubes in FIG. 4 reading from left to right, top to bottom, correspond to aptamers that include SEQ ID NOs: 1, 2, 4, 7, 9, 11, 14, 16, 17, and 18, respectively.
The comparative binding efficiency of the aptamers was evaluated by quantifying the net fluorescent signal in the presence and absence of vimentin (e.g., r-vimentin)(see FIG. 5). Numbers 1, 2, 4, 7, 9, 11, 14, 16, 17, 18, 22, and 23 below the graph correspond to aptamers that include SEQ ID NOs: 1, […], 4, 7, […], 11, 14, 16, 17, 18, 49, and 51, respectively. VIM-binding sequences from Phage Display studies were positive.

Experiment [2] concerns collagen-agarose beads. Briefly: Collagen agarose binding assay. The following applies: loaded in PBS pH 7.4, stringent washing, 10 column volumes of 1M NaCl in PBST, FIG. 3. The source says: FIG. 3 is a schematic and a photograph of a collagen agarose binding assay. Apt #1 is an aptamer consisting of SEQ ID NO: 1; Apt #7 is an aptamer consisting of SEQ ID NO: 7; Apt #19 is an aptamer consisting of SEQ ID NO: 19; and Apt #20 is an aptamer consisting of SEQ ID NO: 20. CBD=collagen-binding domain; CBD1=bovine vWF sequence comprising SEQ ID NO: 22; CBD2=human vWF sequence comprising SEQ ID NO: 23. […] Aptamers and reporters were mixed and loaded under mild binding conditions (PBS, pH 7.4), followed by washing with increasing concentrations of salt and/or detergent (PBST, using Tween 20). Stringent washing generally includes 10 column volumes of 1M NaCl in PBST, pH 7.4).

Sequence of purified recombinant His-tagged VIM (P08670 whole entry): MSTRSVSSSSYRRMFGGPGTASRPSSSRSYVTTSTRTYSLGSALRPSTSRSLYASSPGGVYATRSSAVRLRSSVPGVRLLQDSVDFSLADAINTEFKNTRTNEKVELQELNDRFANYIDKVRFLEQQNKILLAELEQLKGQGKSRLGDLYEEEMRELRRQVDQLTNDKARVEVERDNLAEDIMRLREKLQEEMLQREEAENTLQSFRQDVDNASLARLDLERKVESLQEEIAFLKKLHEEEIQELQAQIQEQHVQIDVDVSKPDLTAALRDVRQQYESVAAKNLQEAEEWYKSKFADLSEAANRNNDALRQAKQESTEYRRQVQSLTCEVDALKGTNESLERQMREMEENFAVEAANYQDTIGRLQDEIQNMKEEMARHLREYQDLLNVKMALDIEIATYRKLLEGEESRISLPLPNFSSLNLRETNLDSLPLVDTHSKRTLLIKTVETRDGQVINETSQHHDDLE

As for “(FITC-Ahx)AGKKPRVTVTNVFLYNRPLNSTE-free acid ({FITC-Ahx}-AGKKPRVTVTNVFLYNRPLNSTE-OH; SMILES CC(C)C[C@H](NC(=O)[C@H](Cc1ccccc1)NC(=O)[C@@H](NC(=O)[C@H](CC(N)=O)NC(=O)[C@@H](NC(=O)[C@@H](NC(=O)[C@@H](NC(=O)[C@@H](NC(=O)[C@H](CCCNC(=N)N)NC(=O)[C@@H]1CCCN1C(=O)[C@H](CCCCN)NC(=O)[C@H](CCCCN)NC(=O)CNC(=O)[C@H](C)NC(=O)CCCCCNC(=S)Nc1ccc2c(c1)C(=O)OC21c2ccc(O)cc2Oc2cc(O)ccc21)C(C)C)[C@@H](C)O)C(C)C)[C@@H](C)O)C(C)C)C(=O)N[C@@H](Cc1ccc(O)cc1)C(=O)N[C@@H](CC(N)=O)C(=O)N[C@@H](CCCNC(=N)N)C(=O)N1CCC[C@H]1C(=O)N[C@@H](CC(C)C)C(=O)N[C@@H](CC(N)=O)C(=O)N[C@@H](CO)C(=O)N[C@H](C(=O)N[C@@H](CCC(=O)O)C(=O)O)[C@@H](C)O) [Aptamer #22]”, the “comparative binding efficiency (net fluorescent signal in the presence and absence of vimentin)” value in experiment [1] is on record as “Strong binding”.
The same measure, in the same setting: as for “(FITC-Ahx)AGKKPSVTVTNVFLYNRPLNSTE-free acid ({FITC-Ahx}-AGKKPSVTVTNVFLYNRPLNSTE-OH; SMILES CC(C)C[C@H](NC(=O)[C@H](Cc1ccccc1)NC(=O)[C@@H](NC(=O)[C@H](CC(N)=O)NC(=O)[C@@H](NC(=O)[C@@H](NC(=O)[C@@H](NC(=O)[C@@H](NC(=O)[C@H](CO)NC(=O)[C@@H]1CCCN1C(=O)[C@H](CCCCN)NC(=O)[C@H](CCCCN)NC(=O)CNC(=O)[C@H](C)NC(=O)CCCCCNC(=S)Nc1ccc2c(c1)C(=O)OC21c2ccc(O)cc2Oc2cc(O)ccc21)C(C)C)[C@@H](C)O)C(C)C)[C@@H](C)O)C(C)C)C(=O)N[C@@H](Cc1ccc(O)cc1)C(=O)N[C@@H](CC(N)=O)C(=O)N[C@@H](CCCNC(=N)N)C(=O)N1CCC[C@H]1C(=O)N[C@@H](CC(C)C)C(=O)N[C@@H](CC(N)=O)C(=O)N[C@@H](CO)C(=O)N[C@H](C(=O)N[C@@H](CCC(=O)O)C(=O)O)[C@@H](C)O) [Aptamer #23]”, the entry is “Strong binding”.
“acetyl-RRGVRVAWREPGRMELNMPHGGSGK(FITC)-amide (Ac-RRGVRVAWREPGRMELNMPHGGSGK(FITC)-NH2; SMILES CSCC[C@H](NC(=O)[C@H](CCCNC(=N)N)NC(=O)CNC(=O)[C@@H]1CCCN1C(=O)[C@H](CCC(=O)O)NC(=O)[C@H](CCCNC(=N)N)NC(=O)[C@H](Cc1c[nH]c2ccccc12)NC(=O)[C@H](C)NC(=O)[C@@H](NC(=O)[C@H](CCCNC(=N)N)NC(=O)[C@@H](NC(=O)CNC(=O)[C@H](CCCNC(=N)N)NC(=O)[C@H](CCCNC(=N)N)NC(C)=O)C(C)C)C(C)C)C(=O)N[C@@H](CCC(=O)O)C(=O)N[C@@H](CC(C)C)C(=O)N[C@@H](CC(N)=O)C(=O)N[C@@H](CCSC)C(=O)N1CCC[C@H]1C(=O)N[C@@H](Cc1c[nH]cn1)C(=O)NCC(=O)NCC(=O)N[C@@H](CO)C(=O)NCC(=O)N[C@@H](CCCCNC(=S)Nc1ccc2c(c1)C(=O)OC21c2ccc(O)cc2Oc2cc(O)ccc21)C(N)=O) [Aptamer #20]”: the “binding to collagen-agarose beads” value in experiment [2] is “bind tightly”.
On the same count and under the same terms, as for “acetyl-STRSVSSSSYRRMFGGPGTASK(FITC)-amide (Ac-STRSVSSSSYRRMFGGPGTASK(FITC)-NH2; SMILES CSCC[C@H](NC(=O)[C@H](CCCNC(=N)N)NC(=O)[C@H](CCCNC(=N)N)NC(=O)[C@H](Cc1ccc(O)cc1)NC(=O)[C@H](CO)NC(=O)[C@H](CO)NC(=O)[C@H](CO)NC(=O)[C@H](CO)NC(=O)[C@@H](NC(=O)[C@H](CO)NC(=O)[C@H](CCCNC(=N)N)NC(=O)[C@@H](NC(=O)[C@H](CO)NC(C)=O)[C@@H](C)O)C(C)C)C(=O)N[C@@H](Cc1ccccc1)C(=O)NCC(=O)NCC(=O)N1CCC[C@H]1C(=O)NCC(=O)N[C@H](C(=O)N[C@@H](C)C(=O)N[C@@H](CO)C(=O)N[C@@H](CCCCNC(=S)Nc1ccc2c(c1)C(=O)OC21c2ccc(O)cc2Oc2cc(O)ccc21)C(N)=O)[C@@H](C)O) [Aptamer #9]”, the entry is “bind tightly”.
With “acetyl-TRKRIRIQRGPGRAFVTIGGK(FITC)-amide (Ac-TRKRIRIQRGPGRAFVTIGGK(FITC)-NH2; SMILES CC[C@H](C)[C@H](NC(=O)[C@H](CCCNC(=N)N)NC(=O)[C@@H](NC(=O)[C@H](CCCNC(=N)N)NC(=O)[C@H](CCCCN)NC(=O)[C@H](CCCNC(=N)N)NC(=O)[C@@H](NC(C)=O)[C@@H](C)O)[C@@H](C)CC)C(=O)N[C@@H](CCC(N)=O)C(=O)N[C@@H](CCCNC(=N)N)C(=O)NCC(=O)N1CCC[C@H]1C(=O)NCC(=O)N[C@@H](CCCNC(=N)N)C(=O)N[C@@H](C)C(=O)N[C@@H](Cc1ccccc1)C(=O)N[C@H](C(=O)N[C@H](C(=O)N[C@H](C(=O)NCC(=O)NCC(=O)N[C@@H](CCCCNC(=S)Nc1ccc2c(c1)C(=O)OC21c2ccc(O)cc2Oc2cc(O)ccc21)C(N)=O)[C@@H](C)CC)[C@@H](C)O)C(C)C) [Aptamer #17]”, the “comparative binding efficiency (net fluorescent signal in the presence and absence of vimentin)” value in experiment [1] is “Strong binding”.
Consider “acetyl-VNTANSTGGSGARRGVRVAWREPGRMELNMPHGGSGK(FITC)-amide (Ac-VNTANSTGGSGARRGVRVAWREPGRMELNMPHGGSGK(FITC)-NH2; SMILES CSCC[C@H](NC(=O)[C@H](CCCNC(=N)N)NC(=O)CNC(=O)[C@@H]1CCCN1C(=O)[C@H](CCC(=O)O)NC(=O)[C@H](CCCNC(=N)N)NC(=O)[C@H](Cc1c[nH]c2ccccc12)NC(=O)[C@H](C)NC(=O)[C@@H](NC(=O)[C@H](CCCNC(=N)N)NC(=O)[C@@H](NC(=O)CNC(=O)[C@H](CCCNC(=N)N)NC(=O)[C@H](CCCNC(=N)N)NC(=O)[C@H](C)NC(=O)CNC(=O)[C@H](CO)NC(=O)CNC(=O)CNC(=O)[C@@H](NC(=O)[C@H](CO)NC(=O)[C@H](CC(N)=O)NC(=O)[C@H](C)NC(=O)[C@@H](NC(=O)[C@H](CC(N)=O)NC(=O)[C@@H](NC(C)=O)C(C)C)[C@@H](C)O)[C@@H](C)O)C(C)C)C(C)C)C(=O)N[C@@H](CCC(=O)O)C(=O)N[C@@H](CC(C)C)C(=O)N[C@@H](CC(N)=O)C(=O)N[C@@H](CCSC)C(=O)N1CCC[C@H]1C(=O)N[C@@H](Cc1c[nH]cn1)C(=O)NCC(=O)NCC(=O)N[C@@H](CO)C(=O)NCC(=O)N[C@@H](CCCCNC(=S)Nc1ccc2c(c1)C(=O)OC21c2ccc(O)cc2Oc2cc(O)ccc21)C(N)=O) [Aptamer #7]”, for which the “binding to collagen-agarose beads” value in experiment [2] is given as “bind tightly”.

For the origin of these results see US10981980B2, “Polypeptide targeting aptamers for characterization, capture, and clinical management of circulating tumor cells” (Counterpoint Biomedica LLC, priority 2016, dated 2021).
